Measurements: the nanobody polyreactivity screen of Harvey et al. (2022)

experiment: yeast display, Sf9 membrane polyspecificity reagent, FACS + sequencing; frameworks hold sequencing errors
Method in brief: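 Sorting gates, low and high (top ~1%), were placed on anti-HA fluorescence to track expression and on streptavidin fluorescence to track reagent binding. A clone's polyreactivity label is taken from the gate it came out of. The reagent was 10% biotinylated, detergent-solubilized Sf9 membrane, applied for 1 hour at 4 °C to galactose-induced yeast display cells.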

Sequence	polyreactivity (PSR sort gate)
QVQLVESGGGLVQAGGSLRLSCAASGSTFVPYAMGWYRQAPGKERELVAAISQSGGSTYYADSVKGRYTISRDNAKNTVYLQMTSLKPEYTAVYYCNVDQFRYPEYDYWGQGTQVTVSS	high polyreactivity
QVQLVESGGGLVQAGGSLRLSCAASGSTFVPYTMGWYRQAPGKERELVAAISSGDSTYYADSVKGRFTISRDNAKNTVYLQMNSLKPEDTAVYYCAADYQWFWVWYGYWGQGTQVTVSS	high polyreactivity
QVQLVESGGGLVQAGGSLRLSCAASGSTFVPYTMGWYRQAPGKERELVAAMSGSGGTDYADSVKGRFTISRDNAKNTVYLQMNSLKPEDTAVYYCATDGLDFWFIYDYWGQGTQVTVSS	low polyreactivity
QVQLVESGGGLVQAGGSLRLSCAASGSTFVQNTMGWYRQAPGKERELVAAITRGGSTSYADSVKGRFTISRDNAKNTVYLQMNSLKPEDTAVYYCNAKSRSPTYRYRSWPYNYWGQGTQVTVSS	high polyreactivity
QVQLVESGGGLVQAGGSLRLSCAASGSTFVQYAMGWYRQAPGKERELVAAITRSGGSTYYADSVKGRFTISRDNAKNTVYLQMNSLKPEDTAVYYCAADFSSSYRAFNYWGQGTQLTVSS	high polyreactivity
QVQLVESGGGLVQAGGSLRLSCAASGSTFVRNAMGWYRQAPGKERELVAAITSSGGSTYYADSVKGRFTISRDNAKNTVYLQMNSLKPEDTAVYYCNAELGSDTANYDYWGQGTQVTVSS	low polyreactivity
QVQLVESGGGLVQAGGSLRLSCAASGSTFVRNAMGWYRQAPGKERELVAGISTGDNTYYADSVKWRFTISRDNAKNTVYLQMISLKPEDTAVYYCNATKEFSFGLDYWGQGTQVTVSS	low polyreactivity
QVQLVESGGGLVQAGGSLRLSCAASGSTFVRNAMGWYRQAPWKERELVAAIRWRSGSTYYADSVKGRFTISRDNAKNTVYLQMNSLKPEDPAVYYCAVDYNSFRYGPLGYWGQGTQVTVSS	high polyreactivity
QVQLVESGGGLVQAGGSLRLSCAASGSTFVRNAMGWYRQATGKERELVAAITTSGARTYYADSVKGRFTISRDNAKNTVYLQMNSLKPEDTAVYYCAAEYKGRTYRFDYWGQGTQVTVSS	low polyreactivity
QVQLVESGGGLVQAGGSLRLSCAASGSTFVRNDMGLYRQAPGKERELVAAITRGGRTYYADSVKGRFTISRDNAKNTVYLQMNSLKPEDTAVYYCAAEGTGYSVGWQYGYWVQGTQVTVSS	low polyreactivity
QVQLVESGGGLVQAGGSLRLSCAASGSTFVRNGMGWYRQSPGKVRELVASISGRGGSTYYADSVKGRFTISRDNAKNTVYLQMNSLKPEDTAVYYCAARKQRGGGPTFDYWGQGTQVTVSS	high polyreactivity
QVQLVESGGGLVQAGGSLRLSCAASGSTFVRNVMGWYRQAPGKERELDAAITRSGDTTYYADSVKGRFTISRDNAKNTVYLQMNSLKPEDTAVYYCAKRTFVRRGSIYPIDDYWGQGTQVTVSS	low polyreactivity
QVQLVESGGGLVQAGGSLRLSCAASGSTFVRNVMGWYRQAPGKERELVAAITRSGDTTYYADSVKGRFTISRDNAKNTVYLQMNSLKPEDTAVYYCAKRTFVRRGSIYPIDDYWGQGTQVTVSS	low polyreactivity
QVQLVESGGGLVQAGGSLRLSCAASGSTFVRYAMGWYRQAPGKERELVAAIRGGGGTYYADSVKGRFTISRDNAKNTVYLQMNSLKPEDTAVYYCAADTYYYYWFAGYTEYDYWGQGTQVTVSS	low polyreactivity
QVQLVESGGGLVQAGGSLRLSCAASGSTFVRYAMGWYRQAPGKERELVAAISGGGSTSYADSVKGRFTISRDNAKNTVYLQMNSLKPEDTAVYFCAKAGYRSEFEYWGQGTQVTLSS	low polyreactivity
QVQLVESGGGLVQAGGSLRLSCAASGSTFVRYAMGWYRQAPGKERELVAAISRRGSSTYYADSVKGRFTISRDNAKNTVYLQMNSRKPEDTADYYCAVDYSPGFDDYDYWGQGTHVTVSS	high polyreactivity
QVQLVESGGGLVQAGGSLRLSCAASGSTFVRYAMGWYRQAPGKERELVASISSSGSTYYADSVKGRFTISRDNAKNTVYLQMNSLKPEDTAVYYCAKQYGGRYGYWGQGTQVTVSS	low polyreactivity
